tested on: T1, OsMYB55 (Oryza sativa); test: cell_activity; details: GUS transactivation in tobacco leaf vs empty vector; almost eight-fold
T1 sequence: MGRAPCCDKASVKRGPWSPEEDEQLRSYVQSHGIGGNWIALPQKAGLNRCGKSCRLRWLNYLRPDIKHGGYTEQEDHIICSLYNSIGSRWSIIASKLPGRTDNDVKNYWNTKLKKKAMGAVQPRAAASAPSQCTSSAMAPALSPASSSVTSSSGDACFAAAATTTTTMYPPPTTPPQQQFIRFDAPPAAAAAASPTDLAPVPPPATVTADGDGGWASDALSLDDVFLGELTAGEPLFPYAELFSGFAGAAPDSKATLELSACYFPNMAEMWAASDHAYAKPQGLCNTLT

activity, 8 fold:
OsGAT1 promoter 1.5-2 kb (GUS reporter)
OsGAD3 promoter 1.5-2 kb (GUS reporter)
OsGS1;2 promoter 1.5-2 kb (GUS reporter)
